According to patent publication US20090018093:
Like-named read-outs stand apart in the source and are kept apart here.

Tested on: Immunoglobulin E (IgE) (Homo sapiens), P01854-1
Experiment: filter

Sequence of Immunoglobulin E (IgE) (Homo sapiens), P01854-1 (P01854 other isoform, or with tags, fused parts or gaps): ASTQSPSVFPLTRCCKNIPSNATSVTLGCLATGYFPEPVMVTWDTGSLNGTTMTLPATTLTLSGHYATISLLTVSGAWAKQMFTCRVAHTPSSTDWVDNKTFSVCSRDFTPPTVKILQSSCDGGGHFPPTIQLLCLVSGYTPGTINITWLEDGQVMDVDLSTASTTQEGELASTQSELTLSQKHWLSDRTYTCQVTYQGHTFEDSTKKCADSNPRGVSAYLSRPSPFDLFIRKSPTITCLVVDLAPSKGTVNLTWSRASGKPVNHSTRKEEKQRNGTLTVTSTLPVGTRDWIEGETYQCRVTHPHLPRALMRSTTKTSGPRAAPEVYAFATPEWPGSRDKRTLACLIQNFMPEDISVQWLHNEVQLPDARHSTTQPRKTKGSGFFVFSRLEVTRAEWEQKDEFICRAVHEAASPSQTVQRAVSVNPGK

AGCCUGGGGACCCAUGGGGGGCU [ARC1256]
Kd (2'-OMe C,U and A10, other A,G deoxy, 3' idT [2'-OMe: 3,4,5,10,11,12,13,15,22,23, 2'-deoxy: 1,2,6,7,8,9,14,16,17,18,19,20,21, 24 = 3' inverted dT], dPBS Ca/Mg + BSA, RT): 0.4 nM

AGCCUGGGGACCCAUGGGGGGCU [ARC912]
Kd (dRmY, 7-deaza-dG at G21 [7-deaza-dG: 21, 2'-OMe: 3-5,11-13,15,22,23, deoxy: all A,G], dPBS Ca/Mg + BSA, RT): 9 nM

GGGAGAGGAGAGAACGUUCUACAAGCAGUUCUGGGGACCCAUGGGGGAAGUGCGCUGUCGAUCGAUCGAUCGAUG [ARC1992]
Kd (dRmY: 2'-deoxy A,G, 2'-OMe C,U, error 8, dPBS Ca/Mg + BSA, RT): 10 nM

AGCCUGGGGACCCAUGGGGGGCU [ARC1263]
Kd (2'-OMe C,U and G21, other A,G deoxy, 3' idT [2'-OMe: 3-5,11-13,15,21-23, deoxy: 1,2,6-10,14,16-20, 24 = 3' inverted dT], dPBS Ca/Mg + BSA, RT): 64 nM

AGCCUGGGGACCCAUGGGGGGCU [ARC902]
Kd (dRmY (2'-OMe C,U), 7-deaza-dG2 [7-deaza-dG at 2, 2'-OMe C3,C4,U5,C11,C12,C13,U15,C22,U23, A,G 2'-deoxy], DPBS Mg/Ca, 0.1 mg/mL BSA, RT): 9 nM

GGGGCTACTTTATCCGTTCCTCCTAGTGGGTAGCCCC [ARC1397]
Kd (2'-OMe at 1-4,7,33-37, PS 14-15, 3' idT [2'-OMe at 1-4,7,33-37, PS linkage 14-15 (internal N = PS, not a base), 3' inverted dT cap (terminal N, left out)], DPBS Mg/Ca, BSA): 1.8 nM

GGGGCTACTTTATCCGTTCCTCCTAGTGGGTAGCCCC [ARC1408]
Kd (2'-OMe at 1-4,7,33-37, PS 25-26, 3' idT [2'-OMe at 1-4,7,33-37, PS 25-26, 3' idT cap after 37 (left out)], DPBS Mg/Ca, BSA): 1 nM

AGCCUGGGGACCCAUGGGGGGCU [ARC1564]
Kd (ARC1335 chemistry with dI18, 3' idT [18=dI (G parent), 24=3' inverted dT], DPBS Mg/Ca, 0.1 mg/mL BSA, RT): 0.5 nM

GGGGCTACTTTATCCGTTCCTCCTAGTGGGTAGCCCC [ARC1391]
Kd (2'-OMe at 1-4,7,33-37, PS 8-9, 3' idT [2'-OMe at 1-4,7,33-37, PS linkage 8-9 (internal N = PS, not a base), 3' inverted dT cap (terminal N, left out)], DPBS Mg/Ca, BSA): 4.4 nM

AGCCUGGGGACCCAUGGGGGGCU [ARC1333]
Kd (2'-OMe G2,G7,G17 and all C,U, rest 2'-deoxy, 3' idT [2'-OMe G2,C3,C4,U5,G7,C11,C12,C13,U15,G17,C22,U23, 3' inverted dT at 24], DPBS Mg/Ca, 0.1 mg/mL BSA, RT): 1.5 nM

AGCNCUGGGNGACCCAUNNNGNNGNNGCUN [ARC2971]
Kd (ARC1666 chemistry + PS 3-4, 3' idT, DPBS Mg/Ca, BSA, RT): 0.06 nM

GGGGCTACTTTATCCGTTCCTCCTAGTGGGTAGCCCC [ARC1394]
Kd (2'-OMe at 1-4,7,33-37, PS 11-12, 3' idT [2'-OMe at 1-4,7,33-37, PS linkage 11-12 (internal N = PS, not a base), 3' inverted dT cap (terminal N, left out)], DPBS Mg/Ca, BSA): 8.1 nM

AGCCUGGGGACCCAUGGGGGGCU [ARC1262]
Kd (2'-OMe C,U and G20, other A,G deoxy, 3' idT [2'-OMe: 3,4,5,11,12,13,15,20,22,23, 2'-deoxy: 1,2,6,7,8,9,10,14,16,17,18,19,21, 24 = 3' inverted dT], dPBS Ca/Mg + BSA, RT): 32 nM

ANGCCUGGGNGACCCAUNNNGNNGNNGCUN [ARC2969]
Kd (ARC1666 chemistry + PS 1-2, 3' idT, DPBS Mg/Ca, BSA, RT): 0.09 nM

AGACUGGGGACCCAUGGGGGUCU [ARC1248]
Kd (2'-OMe/2'-deoxy mix, 3:21 pair changed, DPBS Mg/Ca, 0.1 mg/mL BSA, RT): 38 nM

GGGGCTACTTTATCCGTTCCTCCUAGTGGGTAGCCCCN [ARC1288]
Kd (2'-OMe U at 24, 3' idT, DPBS Mg/Ca, BSA): 2 nM

AGCCUGGGGACCCAUGGGGGGCU [ARC1563]
Kd (ARC1335 chemistry with dI17, 3' idT [17=dI (G parent), 24=3' inverted dT], DPBS Mg/Ca, 0.1 mg/mL BSA, RT): 2.2 nM

GGGGCTACTTTATCCGTTCCTCCTAGTGGGTAGCCCCT [ARC1271]
Kd (2'-OMe at 7, 3' idT [7 (2'-OMe A), 38 (3' inverted dT)], DPBS Mg/Ca, BSA): 0.2 nM

GGGAGAGGAGAGAACGUUCUACCAACGGCAUCCUGGGCCCCACAGGGGAUGUCGCUGUCGAUCGAUCGAUCGAUG [ARC2002]
Kd (dRmY: 2'-deoxy A,G, 2'-OMe C,U, error 6, dPBS Ca/Mg + BSA, RT): 8 nM

AGCCUGGGGACCCAUGGGGGGCU [ARC3262]
Kd (ARC1666 pattern with 2'-OMe G8, 3' idT [dI (written G) at 16,18,20, 2'-OMe 1-5,7,8,10-15,17,22,23, deoxy 6,9,16,18-21, PS 8/9,15/16,16/17,18/19,20/21, 3' inverted dT left out], dPBS Ca/Mg + BSA, RT): 0.16 nM

AGCCUGGGNGACCCAUNNNGNNGNNGNCNUNN [ARC2342]
Kd (ARC1666 chemistry + PS 21-22,22-23,23-idT, 3' idT, second independent measurement 0.04 nM): 0.19 nM

AGCCUGGGGACCCAUGGGGGGCU [ARC1261]
Kd (2'-OMe C,U and G19, other A,G deoxy, 3' idT [2'-OMe: 3,4,5,11,12,13,15,19,22,23, 2'-deoxy: 1,2,6,7,8,9,10,14,16,17,18,20,21, 24 = 3' inverted dT], dPBS Ca/Mg + BSA, RT): 63 nM

GGGGCTACTTTATCCGTTCCTCCTAGTGGGTAGCCCCN [ARC1284]
Kd (2'-OMe at 20, 3' idT, DPBS Mg/Ca, BSA): 0.1 nM

GGGGCTACTTTATCCGTTCCTCCTAGTGGGTAGCCCC [ARC1411]
Kd (2'-OMe at 1-4,7,33-37, PS 28-29, 3' idT [2'-OMe at 1-4,7,33-37, PS 28-29, 3' idT cap after 37 (left out)], DPBS Mg/Ca, BSA): 5.4 nM

GGAUCCGAGGGUGGGCAAUAGGCUCACAAGGGUCC [rRfY minimer SEQ 94]
Kd (2'-F C and U, KD2 26.5 nM, 1xSHMCK + tRNA): 1.01 nM

GGGGCTACTTTATCCGTTCCTCCTAGTGGGTAGCCCC [ARC1406]
Kd (2'-OMe at 1-4,7,33-37, PS 23-24, 3' idT [2'-OMe at 1-4,7,33-37, PS 23-24, 3' idT cap after 37 (left out)], DPBS Mg/Ca, BSA): 3.2 nM

GGGGCTACTTTATCCGTTCCTCCTAGTGGGTAGCCCC [ARC1404]
Kd (2'-OMe at 1-4,7,33-37, PS 21-22, 3' idT [2'-OMe at 1-4,7,33-37, PS linkage 21-22 (internal N = PS, not a base), 3' inverted dT cap (terminal N, left out)], DPBS Mg/Ca, BSA): 1.8 nM

GGGGCTACTTTATCCGTTCCTCCTAGTGGGTAGCCCC [ARC1398]
Kd (2'-OMe at 1-4,7,33-37, PS 15-16, 3' idT [2'-OMe at 1-4,7,33-37, PS linkage 15-16 (internal N = PS, not a base), 3' inverted dT cap (terminal N, left out)], DPBS Mg/Ca, BSA): 2.7 nM

GGGGCTACTTTATCCGTTCCTCCTAGTGGGTAGCCCCT [ARC1265]
Kd (2'-OMe at 1, 3' idT [1=2'-OMe G, 38=3' inverted dT], DPBS Mg/Ca, BSA): 0.2 nM

AGCCUGGGGACCCAUGGGGGGCU [ARC1567]
Kd (ARC1335 pattern with dI21, 3' idT [dI21 (inosine, parent base G), 3' inverted dT24, rest ARC1335 pattern], dPBS Ca/Mg + BSA, RT): 3.5 nM

GGGGCACATTCATCCGTCCCTCCTAGTGGTGTGCTCC [DNA clone SEQ 128]
Kd: 0.5 nM

AGCCUGGGGACCCAUGGGGGGCU [ARC904]
Kd (dRmY (2'-OMe C,U), 7-deaza-dG7 [7-deaza-dG at 7, 2'-OMe C3,C4,U5,C11,C12,C13,U15,C22,U23, A,G 2'-deoxy], DPBS Mg/Ca, 0.1 mg/mL BSA, RT): 8 nM

GGGAGAGGAGAGAACGUUCUACGCAGCGCAUCUGGGGACCCAAGAGGGGAUUCGCUGUCGAUCGAUCGAUCGAUG [ARC2001]
Kd (dRmY: 2'-deoxy A,G, 2'-OMe C,U, error 0.1, dPBS Ca/Mg + BSA, RT): 18 nM

GGGGCTACTTTATCCGTTCCTCCTAGTGGGTAGCCCCT [ARC1292]
Kd (DNA with 2'-OMe G28, 3' idT [2'-OMe G28, 3' inverted dT at 38], dPBS Ca/Mg + BSA): 22 nM

GGGGCTACTTTATCCGTTCCTCCTAGTGGGTAGCCCCN [ARC1297]
Kd (2'-OMe at 33, 3' idT, DPBS Mg/Ca, BSA): 0.8 nM

GGGAAAAGCGAAUCAUACACAAGAGUGCAAGAAGUGCAUUGCUGUGUCUGGUUCUUGGCGAUGUGCUCCGCCAGAGACCAACCGAGAA [rRfY clone SEQ 17]
binding signal (2'-F C,U, ratio bound +/- 20 nM IgE): 0.76

GGGGCTACTTTATCCGTTCCTCCTAGTGGGTAGCCCC [ARC1407]
Kd (2'-OMe at 1-4,7,33-37, PS 24-25, 3' idT [2'-OMe at 1-4,7,33-37, PS 24-25, 3' idT cap after 37 (left out)], DPBS Mg/Ca, BSA): 1.8 nM

GGGGCTACTTTATCCGTTCCTCCTAGTGGGTAGCCCCT [ARC1302]
Kd (DNA with 2'-OMe G1-G4,A7,G30,A32,G33, 3' idT [2'-OMe G1-G4, A7, G30, A32, G33, 3' inverted dT at 38], dPBS Ca/Mg + BSA): 19 nM

AGCCUGGGNGACCCAUNNNGNNGNNGNCNUNN [ARC3272]
Kd (ARC2342 chemistry with 2'-OMe G8,G9, 3' idT, DPBS Mg/Ca, BSA, RT): 0.12 nM

AGCCUGGGNGACNCCAUNNNGNNGNNGCUN [ARC2978]
Kd (ARC1666 chemistry + PS 11-12, 3' idT, DPBS Mg/Ca, BSA, RT): 0.05 nM

AGCCUGGGGACCCAUGGGGGGCU [ARC903]
Kd (dRmY (2'-OMe C,U), 7-deaza-dG6 [7-deaza-dG at 6, 2'-OMe C3,C4,U5,C11,C12,C13,U15,C22,U23, A,G 2'-deoxy], DPBS Mg/Ca, 0.1 mg/mL BSA, RT): 14 nM

GGGGCTACTTTATCCGTTCCTCCTAGTGGGTAGCCCCT [ARC1299]
Kd (2'-OMe at 35, 3' idT [2'-OMe: 35, 38 = 3' inverted dT], DPBS Mg/Ca, BSA): 0.5 nM

AGCCUGGGNGACCCAUNNNGNNGNNGNCNUNN [ARC3274]
Kd (ARC2342 chemistry with 2'-OMe G9,I16, 3' idT, DPBS Mg/Ca, BSA, RT): 0.12 nM

GGGGCTACTTTATCCGTTCCTCCTAGTGGGTAGCCCC [ARC1401]
Kd (2'-OMe at 1-4,7,33-37, PS 18-19, 3' idT [2'-OMe at 1-4,7,33-37, PS linkage 18-19 (internal N = PS, not a base), 3' inverted dT cap (terminal N, left out)], DPBS Mg/Ca, BSA): 2 nM

GGGGCTACUTTATCCGTTCCTCCTAGTGGGTAGCCCC [ARC1273]
Kd (DNA with 2'-OMe U9, 3' idT [2'-OMe U9, 3' inverted dT38], dPBS Ca/Mg + BSA): 3 nM

GGGGCTACTTTATCCGTTCCTCCTAGTGGGTAGCCCCN [ARC1294]
Kd (2'-OMe at 30, 3' idT, DPBS Mg/Ca, BSA): 8 nM
